± gives the uncertainty stated by the source.
experiment: abundance fitness (aPCA) (normalised: wild type 0, dead -1); higher = more abundant; growth selection in yeast, the domain comes from the species named; details: Homo sapiens

Substance | abundance fitness
Transcriptional activator Myb K143D, P10242 | -0.192 ± 0.19
Transcriptional activator Myb K143E, P10242 | -0.144 ± 0.17
Transcriptional activator Myb K143F, P10242 | -0.235 ± 0.18
Transcriptional activator Myb K143G, P10242 | -0.06 ± 0.059
Transcriptional activator Myb K143I, P10242 | -0.233 ± 0.14
Transcriptional activator Myb K143L, P10242 | -0.221 ± 0.16
Transcriptional activator Myb K143M, P10242 | -0.031 ± 0.16
Transcriptional activator Myb K143P, P10242 | -0.406 ± 0.49
Transcriptional activator Myb K143Q, P10242 | -0.961 ± 0.36
Transcriptional activator Myb K143R, P10242 | -0.228 ± 0.12
Transcriptional activator Myb K143S, P10242 | -0.245 ± 0.11
Transcriptional activator Myb K143T, P10242 | -0.118 ± 0.11
Transcriptional activator Myb K143V, P10242 | -0.13 ± 0.087
Transcriptional activator Myb K143W, P10242 | -0.535 ± 0.076
Transcriptional activator Myb K143Y, P10242 | -0.201 ± 0.16
Transcriptional activator Myb K144A, P10242 | -0.202 ± 0.099
Transcriptional activator Myb K144C, P10242 | -0.095 ± 0.12
Transcriptional activator Myb K144D, P10242 | 0.06 ± 0.14
Transcriptional activator Myb K144E, P10242 | -0.114 ± 0.14
Transcriptional activator Myb K144F, P10242 | -0.285 ± 0.16
Transcriptional activator Myb K144G, P10242 | -0.042 ± 0.059
Transcriptional activator Myb K144H, P10242 | -0.232 ± 0.12

Substance | abundance fitness
Transcriptional activator Myb K144I, P10242 | -0.206 ± 0.22
Transcriptional activator Myb K144L, P10242 | -0.101 ± 0.084
Transcriptional activator Myb K144M, P10242 | 0.028 ± 0.1
Transcriptional activator Myb K144N, P10242 | 0.073 ± 0.11
Transcriptional activator Myb K144P, P10242 | -0.269 ± 0.11
Transcriptional activator Myb K144Q, P10242 | -0.015 ± 0.1
Transcriptional activator Myb K144R, P10242 | -0.078 ± 0.072
Transcriptional activator Myb K144S, P10242 | 0.067 ± 0.085
Transcriptional activator Myb K144T, P10242 | 0.101 ± 0.086
Transcriptional activator Myb K144V, P10242 | -0.042 ± 0.085
Transcriptional activator Myb K144W, P10242 | -0.201 ± 0.089
Transcriptional activator Myb K144Y, P10242 | 0.08 ± 0.16
Transcriptional activator Myb K171A, P10242 | -0.017 ± 0.093
Transcriptional activator Myb K171C, P10242 | -0.238 ± 0.12
Transcriptional activator Myb K171D, P10242 | -0.234 ± 0.14
Transcriptional activator Myb K171E, P10242 | -0.017 ± 0.064
Transcriptional activator Myb K171F, P10242 | -0.638 ± 0.22
Transcriptional activator Myb K171G, P10242 | -0.336 ± 0.061
Transcriptional activator Myb K171H, P10242 | -0.207 ± 0.28
Transcriptional activator Myb K171I, P10242 | -0.141 ± 0.12
Transcriptional activator Myb K171M, P10242 | 0 ± 0.08
Transcriptional activator Myb K171P, P10242 | -0.354 ± 0.14

Substance | abundance fitness
Transcriptional activator Myb K171Q, P10242 | -0.084 ± 0.1
Transcriptional activator Myb K171S, P10242 | 0.016 ± 0.071
Transcriptional activator Myb K171T, P10242 | -0.148 ± 0.2
Transcriptional activator Myb K171V, P10242 | -0.19 ± 0.088
Transcriptional activator Myb K171W, P10242 | -0.598 ± 0.091
Transcriptional activator Myb K182C, P10242 | -0.167 ± 0.11
Transcriptional activator Myb K182D, P10242 | -0.548 ± 0.1
Transcriptional activator Myb K182E, P10242 | 0.01 ± 0.062
Transcriptional activator Myb K182F, P10242 | -0.383 ± 0.16
Transcriptional activator Myb K182H, P10242 | -0.299 ± 0.16
Transcriptional activator Myb K182I, P10242 | -0.181 ± 0.14
Transcriptional activator Myb K182L, P10242 | -0.051 ± 0.068
Transcriptional activator Myb K182M, P10242 | 0.037 ± 0.085
Transcriptional activator Myb K182N, P10242 | -0.177 ± 0.15
Transcriptional activator Myb K182P, P10242 | -0.678 ± 0.15
Transcriptional activator Myb K182Q, P10242 | 0.136 ± 0.12
Transcriptional activator Myb K182R, P10242 | 0.068 ± 0.056
Transcriptional activator Myb K182S, P10242 | -0.161 ± 0.069
Transcriptional activator Myb K182T, P10242 | -0.696 ± 0.14
Transcriptional activator Myb K182V, P10242 | -0.176 ± 0.058
Transcriptional activator Myb K182W, P10242 | -0.184 ± 0.076
Transcriptional activator Myb K182Y, P10242 | -0.253 ± 0.17

Substance | abundance fitness
Transcriptional activator Myb K192A, P10242 | -0.247 ± 0.12
Transcriptional activator Myb K192C, P10242 | -0.024 ± 0.12
Transcriptional activator Myb K192D, P10242 | -0.448 ± 0.21
Transcriptional activator Myb K192F, P10242 | -0.301 ± 0.29
Transcriptional activator Myb K192G, P10242 | -0.219 ± 0.053
Transcriptional activator Myb K192H, P10242 | -0.156 ± 0.2
Transcriptional activator Myb K192I, P10242 | -0.063 ± 0.14
Transcriptional activator Myb K192L, P10242 | 0.004 ± 0.095
Transcriptional activator Myb K192M, P10242 | -0.122 ± 0.16
Transcriptional activator Myb K192N, P10242 | -0.162 ± 0.43
Transcriptional activator Myb K192P, P10242 | -0.082 ± 0.12
Transcriptional activator Myb K192Q, P10242 | -0.337 ± 0.16
Transcriptional activator Myb K192R, P10242 | -0.04 ± 0.064
Transcriptional activator Myb K192S, P10242 | -0.074 ± 0.093
Transcriptional activator Myb K192T, P10242 | -0.232 ± 0.13
Transcriptional activator Myb K192V, P10242 | -0.207 ± 0.074
Transcriptional activator Myb K192W, P10242 | -0.334 ± 0.11
Transcriptional activator Myb K192Y, P10242 | -0.535 ± 0.17
Transcriptional activator Myb K204A, P10242 | 0.054 ± 0.091
Transcriptional activator Myb K204C, P10242 | -0.317 ± 0.12
Transcriptional activator Myb K204D, P10242 | -0.164 ± 0.15
Transcriptional activator Myb K204E, P10242 | -0.062 ± 0.11

Substance | abundance fitness
Transcriptional activator Myb K204F, P10242 | -0.097 ± 0.19
Transcriptional activator Myb K204G, P10242 | -0.166 ± 0.11
Transcriptional activator Myb K204H, P10242 | -0.401 ± 0.39
Transcriptional activator Myb K204I, P10242 | -0.055 ± 0.16
Transcriptional activator Myb K204L, P10242 | -0.07 ± 0.18
Transcriptional activator Myb K204M, P10242 | -0.111 ± 0.11
Transcriptional activator Myb K204N, P10242 | -0.153 ± 0.097
Transcriptional activator Myb K204Q, P10242 | 0.192 ± 0.19
Transcriptional activator Myb K204R, P10242 | 0.066 ± 0.12
Transcriptional activator Myb K204T, P10242 | -0.012 ± 0.13
Transcriptional activator Myb K204V, P10242 | -0.29 ± 0.22
Transcriptional activator Myb K204W, P10242 | -0.443 ± 0.11
Transcriptional activator Myb K204Y, P10242 | -0.16 ± 0.25
Transcriptional activator Myb L172A, P10242 | -0.291 ± 0.076
Transcriptional activator Myb L172C, P10242 | -0.268 ± 0.14
Transcriptional activator Myb L172E, P10242 | -0.177 ± 0.089
Transcriptional activator Myb L172F, P10242 | -0.35 ± 0.24
Transcriptional activator Myb L172H, P10242 | -0.173 ± 0.14
Transcriptional activator Myb L172I, P10242 | -0.354 ± 0.16
Transcriptional activator Myb L172K, P10242 | -0.108 ± 0.1
